Source: the nanobody polyreactivity screen of Harvey et al. (2022)

Assay: yeast display, Sf9 membrane polyspecificity reagent, FACS + sequencing; frameworks hold sequencing errors
Summary of the method: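 Galactose induction of a Saccharomyces cerevisiae BJ5465 synthetic nanobody display library ran 36–48 hours. The cells were then stained for 1 hour at 4 °C with 10% biotinylated, detergent-solubilized Sf9 membrane reagent, pulled down on streptavidin microbeads and FACS-sorted into low and high (top ~1%) gates on expression and reagent-binding fluorescence. Labels for polyreactivity follow the gate of origin.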

Row | Sequence | polyreactivity (PSR sort gate)
1 | QVQLVESGGGLVQAGGSLRLSCAASGSIIWLYAMGWYRQAPGKERELVAAISSGGSTYYADSVKGRFTISRDNAKNTVYLQMNSLKPEDTAVYYCAADYWSQSDWWDLTEYEYWGQGTQVTVSS | high polyreactivity
2 | QVQLVESGGGLVQAGGSLRLSCAASGSIIYTNAMGWYRQAPGKERELVAAITGTTTTNYADSVKGRFTISRDNAKNTVYLQMNSLKPEDPAVYYCNADYDRSRVYYSVELYDYWGQGTQVTVSS | low polyreactivity
3 | QVQLVESGGGLVQAGGSLRLSCAASGSILASNAMGWYRQAPGKDRELVAAITTSGGSTYYADSVKGRFTISRHNAKNTVYLQMNSLKPEDTAVYYCNAEYWLGRWLRYGYWGQGTQVTVSS | high polyreactivity
4 | QVQLVESGGGLVQAGGSLRLSCAASGSILCLNAMGWYRQAPGKERELVADITRGGSTYYADSVKGRFTISRDNAKNTVYLQMNSLKPEDTAVNYCAADAYTGQIPYYYFEHYYWGQGTQVTVSS | high polyreactivity
5 | QVQLVESGGGLVQAGGSLRLSCAASGSILCTNAMGWYRQAPGKERELVAAITTSGASTYYADSVKGRFTISRANAKNSVYLPMNSLKPEDSAVYYCAAPSRYRYYWGNYWGQGTQVTVSS | high polyreactivity
6 | QVQLVESGGGLVQAGGSLRLSCAASGSILDHYAMGRYRQAPGKEREFVAAISIRGGSTYYADSVKGRFTISRDNEKNTVYLHMNSLKPEDTAVYYCNALSNYVYRRNDYGGQGTQVTVSS | low polyreactivity
7 | QVQLVESGGGLVQAGGSLRLSCAASGSILDVYAMGWYRQAPGKERELVATISWSGGDTYYADSVKGRFTISRDNAKNTVYLQMNSLKPEDTAVYYCNDVFSYYGYDYWGQGTQVTVSS | low polyreactivity
8 | QVQLVESGGGLVQAGGSLRLSCAASGSILDWNAMGWYRQAPGKVRELDAAITNGVSTHYADSVKGRFTISRDNAKNTVYFQMNSLKPEETAVYYCAKAFWWRPEWWLRSARGSWGQGTQVTVSS | low polyreactivity
9 | QVQLVESGGGLVQAGGSLRLSCAASGSILEPYAMGWYRQAPGKERELVAAISSSGGSTRYADSVKWRFTISRDNAKNTVYLQMNSLKPEDTAVYYCAARFRAKFNYWGQGTQVTVSS | high polyreactivity
10 | QVQLVESGGGLVQAGGSLRLSCAASGSILEVYAMGWYRQAPGKERELVAAISDGDSTYYADSVKGRFTISRDNAKNTVYLQMNSLKPEDTAVYYCAAEFVGTLWWYDYWGQGTQVTVSS | low polyreactivity
11 | QVQLVESGGGLVQAGGSLRLSCAASGSILFKNAMGWYRQAPGKERELVAAISTSGGRTYYADSVKGRFTISRDNAKNTVSLQMNSLKPEDTAVYYCAAVYPRQVSQVWRDDYWGQGTQVTVSS | high polyreactivity
12 | QVQLVESGGGLVQAGGSLRLSCAASGSILGANVMGWYRQAPGKERELVASISKSGGNTFYADSVKGRFTISRDNAKNTVYLQMNSLKPEDTAVYYCAKDVLGGQITDGVGNDYWGQGTQVTVSS | low polyreactivity
13 | QVQLVESGGGLVQAGGSLRLSCAASGSILGGNTMGGYRQAPGKERELVAAISRSGGSTYYADSVKGRLTISRDNAKNTVYLQMNSLKPEDTAVYYCNRKQAGHAQGYDYWGQGTQVTVSS | high polyreactivity
14 | QVQLVESGGGLVQAGGSLRLSCAASGSILGHYAMGWYRQAPGKERELVAAISSSGGSTYYADSVKGRFTISRDNAKNTVYLQMNSLKPEDTAVYYCAADRGRPFPRGTGYYYWGQGTQVTVSS | high polyreactivity
15 | QVQLVESGGGLVQAGGSLRLSCAASGSILGHYAMGWYRQAPGTERELVAAISRGGSTTYYADSVKGRFTISRDNAKNTVYFQMNSLKPEDTAVYYCAARSASKMDYWGQGTQVNVSS | high polyreactivity
16 | QVQLVESGGGLVQAGGSLRLSCAASGSILGINVMGWYRPAPGKERELVAAISRRGGSTYYADSVKGRFTISRDNAKNTVYLQMNSLKPEDTAVYYCAATRTARTMGYWGQGTQVTVSS | high polyreactivity
17 | QVQLVESGGGLVQAGGSLRLSCAASGSILGPYAMGWYRQAPGKERELVAAISQSGARTYYADSVKGRFTISRDNAKNTVYLQMNSLKPEDTAVYYCAAQSRKGGWSAYYYWGQGTQVTVSS | high polyreactivity
